Reference: the DeepSol protein solubility set

Assay: soluble on expression in E. coli; label from the status in PepcDB or PDB records

Sequence | soluble on expression in E. coli
MSLVSSLSFNFAPDFRPLAARMRPRTIAEYIGQAHLLGEGQPLRQALEAGRAHSMMLWGPPGTGKTTLAELIAHYSNAHVERISAVTSGVKDIRGAIEQAQAIAQSRGQRTLLFVDEVHRFNKSQQDAFLPFIEDGTVIFIGATTENPSFEINNALLSRARVYLIKRLSQDEIVHIITQALADTERGLGQRALNMPTDVLNKLAQLCDGDARKALNLLELMSDMVADGGTFTTEMLVQVAGHQVAGFDKNGDQFYDLISAVHKSIRGSAPDAALYWFCRILEGGGDPLYVARRLLAIASEDVGNADPAAMTIALNAWECFHRVGPAEGERAIAQAIVYLASAPKSNAVYTAFKAARALARETGQEAVPYHLRNAPTKLMAEMGFGAEYRYAHDEPNAYASGENYFPESLKESQFYFPTERGFEKRIKDKLVQLAQLDQASGRKREGHHHHHH | soluble
MGSDKIHHHHHHMNMKYQHIIEVDKELCIGCGLCKNDCPVNNIIIENKKSVIKKQDCLMCGHCAAICPTKAITLTGFDEPPIELTNKPKLDSDELLMAIKSRRSIRKFKDKEVSSEIIKQIIEAGRYTPSAKNSQDVSYIVLDNKKSIYENEAVKFFRKIKPIANIAIKYSKEVEIDDNFFFKHAPIAIMIITKDKISGSLAASNMALMAESYGLGVLFSGYFSDVANNSPKLKKLLGLKRSNHVLTTLVIGYPDVKYRRTAQKEVATVRYL | not soluble
MQRQEQLKKWLAEQYPGDEIQLEFAAADADFRRYFRAIWPDGASRIVMDAPPEHIGTDAYVKVRDIFSMVKVPEIYLRDRDQGFIVMEDLGKVTYLAALQHDERPFVHRHLLLEALDTLVDIQKASQPEVLPEYDETLLTRELNLFPEWFCAKELGKPLNFKQRQLWDAGVQALLPALLTQPKVFVHRDFIVRNLMLTPGTPGVLDFQDAVYGPISYDAVSLLRDAFIEWDEEFVLDLAIRYWEKARAAGLPVPEAFDDFYRAFEWMGVQRHLKVAGIFARLYHRDGKDKYLAEIPRFIKYLKRTTRRYAELAPFYQLLVDLVGRDATDEELQSSYPVLGVKGHLEHHHHHH | not soluble
MDDATNKKRKVFVSTILTFWNTDRRDFPWRHTRDPYVILITEILLRRTTAGHVKKIYDKFFVKYKCFEDILKTPKSEIAKDIKEIGLSNQRAEQLKELARVVINDYGGRVPRNRKAILDLPGVGKYTCAAVMCLAFGKKAAMVDANFVRVINRYFGGSYENLNYNHKALWELAETLVPGGKCRDFNLGLMDFSAIICAPRKPKCEKCGMSKLCSYYEKCST | soluble
AIADYSNTYGAYGGGGFLPESPARTGGNASTRFGVGSGSSLRDQRRSLLPVRVADLVHAVHDPVTNTFVLRDENEHQSITISEGSIVKVVAYVEELREQPLDLLWLLDDRSGEMIWARMASTSSSSLAALEQSGILVRVFGQLLEVDGRRVLNVRAIRKADGEVELRYHENLCQLSKLQLIRGYPTAGNALAGASSSPASPKAGPSKAVHRSSLGSGAPKEMAQQAPGLEIPAAFPPEHFKVLKCIREETARNRDAMLTDIAQRIALSTTKVRGICDALQNEGHIYCTLDDDTFRASSS | soluble
SGKQPVKLKAVVYALSPFQQKIMTGLWKDLPEKIHHKVSENWISATLLVTPVVGTYWYAQYFKEQEKLEHRF | soluble
MGSDKIHHHHHHMAPRGNQMLGNAHFRKHWHKRIKTWFDQPARKLRRRQNRQAKAVEIAPRPVAGLLRSVVRCPQKRYNTKTRLGRGFSLQELKAAGISQAQARTIGIAVDVRRTNKTAEGLKANADRLKEYKAKLILFPKKASAPKKGDSSAEELKVAAQLRGDVLPLSHTITFDEPRQVTDAERKVEIFRLLRKERADKKYRGKREKRAREAAEENK | not soluble
MFADLDYDIEEDKLGIPTVPGKVTLQKDAQNLIGISIGGGAQYCPCLYIVQVFDNTPAALDGTVAAGDEITGVNGRSIKGKTKVEVAKMIQEVKGEVTIHYNKLQADPKQGMSLDIVLKKVKHRLVENMSSGTADALGLSRAILCNDGLVKRLEELERTAELYKGMTEHTKNLLRAFYELSQTHRAFGDVFSVIGVREPQPAASEAFVKFADAHRSIEKFGIRLLKTIKPMLTDLNTYLNKAIPDTRLTIKKYLDVKFEYLSYCLKVKEMDDEEYSCIALGEPLYRVSTGNYEYRLILRCRQEARARFSQMRKDVLEKMELLDQKHVQDIVFQLQRLVSTMSKYYNDCYAVLRDADVFPIEVDLAHTTLAYGLNQEEFTDGEEEEEEEDTAAGEPSRDTRGAAGPLDKGGSWCDS | soluble
